The target of the data set is SMAD3 (UniProt P84022 1-425). The experiment in a line: EMSA; poly(dI-dC) 0.25 mg/mL; two complexes, partially abolished by unlabeled probe (40 and 200 ng); 20% glycerol, 5 mM MgCl2, 2.5 mM EDTA, 25 mM DTT, 200 mM NaCl, 50 mM Tris-HCl pH 7.6, 0.25 mg/mL poly(dI-dC), 20 min at room temperature; 6% native PAGE. The conditions noted are these: protein: commercial; label: 5'-Cy5 on strand 1; blunt.
Sequence of SMAD3 (P84022 whole entry): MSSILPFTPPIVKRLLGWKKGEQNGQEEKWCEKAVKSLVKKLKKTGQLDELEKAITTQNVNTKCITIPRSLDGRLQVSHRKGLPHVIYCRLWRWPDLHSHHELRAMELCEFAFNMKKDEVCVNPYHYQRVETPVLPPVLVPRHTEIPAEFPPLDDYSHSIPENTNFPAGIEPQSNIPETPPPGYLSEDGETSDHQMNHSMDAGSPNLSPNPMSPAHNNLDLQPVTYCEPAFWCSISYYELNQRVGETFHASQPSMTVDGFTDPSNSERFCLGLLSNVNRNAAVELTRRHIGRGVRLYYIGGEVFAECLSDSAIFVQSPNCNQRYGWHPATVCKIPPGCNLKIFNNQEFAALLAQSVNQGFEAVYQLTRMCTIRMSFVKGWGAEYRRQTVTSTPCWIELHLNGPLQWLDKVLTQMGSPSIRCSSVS

B1: FOXA2 promoter probe (-42 to -19) (dsDNA)
DNA 1: GATTGCTGGTCGTTTGTTGTGGCT
DNA 2: AGCCACAACAAACGACCAGCAATC
For B1, the binding result is “binds”.
